Measurements from the DeepSol protein solubility set.

Assay: soluble on expression in E. coli; label from the status in PepcDB or PDB records
For “MAKHEQILVLDPPSDLKFKGPFTDVVTTNLKLQNPSDRKVCFKVKTTAPRRYCVRPNSGIIDPGSIVTVSVMLQPFDYDPNEKSKHKFMVQTIFAPPNISDMEAVWKEAKPDELMDSKLRCVFEMPNENDKLND”, the “soluble on expression in E. coli” value was “soluble”. For “MEEMSMEKIVNDILKEEVYYEKLQNGLDVYFMPKRGFMKKYAILATNYGSNDLEFVPIGEDKKIRVNEGIAHFLEHKMFEQPDGGDAFDKFSKLGVNANAFTNFTMTAYLFSATENFYESLEHLIDYVQTPYFTDENVEKEKGIIAQEIKMYNDDPDWNVYFNCLKAMYVNYPARIDIAGTVDSIYKITKEELYKCYNTFYNPGNMALFVVGDLDVEKVIDVTKKS”, the “soluble on expression in E. coli” value was “not soluble”. For “KGPNLTEISKKITESNAVVLAVKEVETLLTSIDELAKAIGKKIKSDVSLDNEADHNGSLMSGAYLISTLITKKISAIKDSGELKAEIEKAKKCSEEFTAKLKGEHTDLGKEGVTDDNAKKAILKTNNDKTKGADELEKLFESVKNLSKAAKEMLTNSVKELTSP”, the “soluble on expression in E. coli” value was “soluble”. With “MSMNRQEISDLCVKSLEGRMVGTEAQNIENGNAFYRYFFTNFPDLRVYFKGAEKYTADDVKKSERFDKQGQRILLACHLLANVYTNEEVFKGYVRETINRHRIYKMDPALWMAFFTVFTGYLESVGSLNDQQKAAWMALGKEFNAESQTHLKNSNLPHV” the “soluble on expression in E. coli” value was “soluble”. With “MGSDKIHHHHHHMVKLKDGFTGERALVLPRIIVDKMEEDPLTSMLHITDIGYYPKAKHHFRERKEPINQYVFIYCIDGAGSYRIGDQEYTVSANQYFILPAGVPHSYASNKSTPWTIYWIHFKGILAPFYAKDANRPMDIQSEQHSRISTRINLFEEIFNTLKNGYSNENLRYAFSMFHFYLGTLRYVQQYRNAGTNEAEDEGIVNVAIHYMKENMEKHLSLEEISTQIGYSPSHFSMLFKKQTGHSPLTYFNLLKMQQACLLLDTTDMKINQICYKIGIEDTYYFSRLFSKIMGMSPREYRKSKKG” the “soluble on expression in E. coli” value was “not soluble”. With “MIFRAKANKALDRAEDPRETLDYSYQKQLELLQKVRRGVADVATSRKRLELQLNQLQSQSGKLEDQGRKALALGREDLAREALSRRAALQQQVTDLETQHATLQGEEEKLTLAAQRLQAKVDAFRTKKETIKATYTAAQAQTRIGEAFSGISEEMGDVGLAIQRAEDKTAQLQARAGAIDELLASGALDDQSGMHKDDIQAELDRLSGGTDVELELQRMKAELAGGSTSDRQAIEGGQGQGEASSQSQQPQDTPRFDKQLEHHHHHH” the “soluble on expression in E. coli” value was “not soluble”. With “MAHHHHHHMAYPYNAYLGYTQPPTQYGQPPVVAGAHGHLPVTTPLPYNAQSAYGGAQPP” the “soluble on expression in E. coli” value was “not soluble”. With “MGSDKIHHHHHHMRLKISLLSPADSFEIDLNHSYHLASAIYRAIERADPSLSIELHKPDVPKFFTFSKLFIPKRKFRIEGEKMVSDCEEAYFFFSTLRNEVAASLVEGLLSKPEIRICGVDFIVSEVSVLPEREVKGREKFVTLSPIYASTSVGENGRRRIFDLYPKDSKFYEVILQNLVKKYVLYYKSAPENLDFHMKPLNVKAKRIRLKDTFHRCVEMVFKAEGSPELLDVGYKAGFGSKNSMGFGMVKVV” the “soluble on expression in E. coli” value was “not soluble”. In the case of “SELFTLGACRQVGKSCFVLKTSEGLVMLDCGLHPSYQDDRRYPNFSLAFSYGPLKAVFITHCHADHVGALPILTERWGYDGPIYMSEPTRKLSYYILEECVGSWGGDDEWTDSSRSEWSYTQREVESCLTKCIVGWLDMCWVLTCLASS”, the “soluble on expression in E. coli” value is reported as “soluble”. For “MGSDKIHHHHHHMILSVSRRTDIPAFYSEWFFNRLKEGFVYVINPFNERKVSKVELNKETVDLFVFWTKDAEPMLKRLDELNEFKYYFQFTITSYRNDVERMTRKKKDIIDTFRILSKKIGKEKIIWRYDPIFLNDFYTKEYHYRWFERFCDKLEGYTDKCIISFLDLYKKTEINTRCLNIHKMDEKSMRQVAKQLSIIANKHNIIIETCSEGIDLSDYGIKKGSCIDKNLISKIIDFGVELKKDNNQRELCGCVKSVDIGQYNTCKHHCLYCYANFNEKLLNDSILKYNPKAPTLAYTLKGDEKITVREMESIKGNKQKQLDLFKNIKQGE”, the “soluble on expression in E. coli” value was “not soluble”. With “MGSDKIHHHHHHMKENIEKLFQAIAQKNPIHSKYLKKIEFSQEDEEEFDKLISYYIQDGISIKEQCDCYLLILNDTLEETKFFIENGAYRYSSFDEVKDKVYFNESYMKQYMIGLALSSFVWIAHIKVRKYFSQYLQNFTPKTTYFEIGPGHGEYFARAVKSGKFSAFYGLDISPTSCELTQKMVKQQVGGLITKCDFLCQDFFTYDFDKKADLIVIGEVLEHVEKPLEFLKRSKELLSDGGEIFATIPINAPAIDHIYLFSHPDEVKDLIEKSGLKFKAYECFMANDYSLEKALKFKNAITMAVVLNA” the “soluble on expression in E. coli” value was “not soluble”. With “MAGDPMKNILIFPFLSISTGHHHVADALQAELESQGLAAEKIDIFSHSYRRLEKLSSVAYLKWIQYFPKTYSGIYRLLACGEFQHDKRYFMYECVFTQQMRHILQEKQPDIAFCTHALPSYLLNRLKPEYPNLTVVNVYTDFFVNQLWGRKNIDYHFVPSTEVKKQLISEGIDQNNIYLTGIPVHQNFEMESADTLQHHPPYTIIITGGSMGVGGILKWVQELSPGGKILYKILCGRNEKLYSYVKSLHHPLIEAIPYLHSKAEMNRLYEQATGIMTKPGGVTISECLQKRLPVFIYHALPGQEEMNLNLLHERKLVTDMRNWDMQKAEEYIAAFFQSNEQMKEYKKHVNGYLGEMSDRKIKDVLKRIIWKQKNTLLKLEHHHHHH” the “soluble on expression in E. coli” value was “not soluble”. With “MEEHPRAWIISVGNELLIGRTINTNAAWLGSRLTLLGFEVERVVTVPDRVEDIAEEVGRALGRARVVITTGGLGPTYDDVTLQGVAMALGRGLKLHPGALEMVRRFYSKRGLGLTEDRVKMAMLPDGAEPLENPVGAAPGAVVEARGSLVASLPGVPSEMEAMFEKALRPLLEEIAPPGAVVECGIAVVGVPESSLAPYIKEASRVSPRVYVKSHPQGSEIGKPLVR” the “soluble on expression in E. coli” value was “not soluble”. In the case of “MYDAIVVGGGFSGLKAARDLTNAGKKVLLLEGGERLGGRAYSRESRNVPGLRVEIGGAYLHRKHHPRLAAELDRYGIPTAAASEFTSFRHRLGPTAVDQAFPIPGSEAVAVEAATYTLLRDAHRIDLEKGLENQDLEDLDIPLNEYVDKLDLPPVSRQFLLAWAWNMLGQPADQASALWMLQLVAAHHYSILGVVLSLDEVFSNGSADLVDAMSQEIPEIRLQTVVTGIDQSGDVVNVTVKDGHAFQAHSVIVATPMNTWRRIVFTPALPERRRSVIEEGHGGQGLKILIHVRGAEAGIECVGDGIFPTLYDYCEVSESERLLVAFTDSGSFDPTDIGAVKDAVLYYLPEVEVLGIDYHDWIADPLFEGPWVAPRVGQFSRVHKELGEPAGRIHFVGSDVSLEFPGYIEGALETAECAVNAILHSHHHHHH”, the “soluble on expression in E. coli” value is reported as “soluble”. In the case of “MGSDKIHHHHHHLNNQIKIFEGNKIRSIWDNEKEEWYFSVVDVVAVLTESKDPQVYWRVLKKRLKEEGNKTVTNCNALKMKAADGKMRLTDVADMQGIFRIIQSVPSPKAEPFKMWLAEVGKERIDEIIDPELTIDRALETYLKKGYSREWINQRLQAIQVRKELTDTWQDHGVEKGKEYAILTNEITKAWSGMTTREYKDLKGLKKENLRDNMSTLELVLNMLAEATTTELTNATHPQGLEENKKVAKRGGSIAGNARKEIEQETGKSVITSKNAIDFVKLIEDVSSKEFEDKDKKDKD”, the “soluble on expression in E. coli” value is reported as “not soluble”. With “MATPETRRRPNILVTGSPGTGKSTLGQQVAEKLGFVFIEVSKEVRENNLQGDFDEQYNCHVLDEDKLLDHISDRLDSDEGGIVVDYHGCDLFPERWFDVVVVLRCPTEKLYDRLQSRGYSEFKIKENVECEIFGTLLEEARESYSEDIVHELQSETTEQMEENLERICELAGEFKNEHTMEQ” the “soluble on expression in E. coli” value was “not soluble”. For “MGSDKIHHHHHHMKTFLESLKFPVQEVNKKSSGEKGPGRPPYWEMVFYWTRKPLVGARSVIAGALLPENVDENLFKAAVRLSSPTPHRENPQIPAEFAKYFEGKKLLDPFAGFGSIPLEGLRLGLDVTAVELLPTTYIFLKAVLEYPKKFGKSLVKDVERWGEWITEQLKNDPEIRELYDDDVAVYIGTWEIRCPHCGRWTPAIGNFWLARVKDGKGYKRLAYMKPERKGDEIEIRVIDLNEILDDISKANVDGNEIIFEGENYVKTVEEAVRDGKLKQSDVKIDGNTVIFEVPSANIESRRDQLTCLMCGNVIKYADENGNHHMKLKNGDFYVKFALRKYHEGDERFARQRLLVKVKVKDGDLIFEPATKEDSEKLWKAKEKVREMLEKGDLDVPSEAIPLYENRRITPILSAEKWYQFFNPRQLLTLIKIVRLIREVGRKVEEEKIAEGWNKERAFEYAEAVATYLSTAMLKYAYYNSIVTRWDSTWWKIGETMSTRGIAMNWNWTESPWFSSFGGMIKTLLAILRGVKYLTSALSSSQRTLADFTENSVKVLQGDATSLNLGEKFDVIVTDPPYADDVPYTELSDFYYVWLKRALSDVENGKLIPRFHKEAFFKRIGPKWVEIKTQWQEFAKKEVSTNPGRFMEDENKKEKAVQHFENLFSQAFVAMREHLKDDGVLVTYYAHTDPGSWINLIEAGWRRARLQITRAIPLTTESETSIVSRGKMSLDTSIVAVWRKQKEEKTVQISTLKEEIERKAKSSAREFIEYGYEGLDLLYGVMAAALEEVTKYREISSLKGPLTTEEILNEYVYPATIRGIVNAIAEIEGTGTLHSGTAMFYTAYKILFGNASLSANDIVLLRLATSTDPSELISSGVLKEKRSSSSKEYTLYTPDLLGKKALDTKEFQKFLHEKKLDPVEPKPKNSVDVLQLLEYYSLLGRSRVKEEIEKLRKMWAGEVEEALFIARLVSEYYAEIYIRKIDPVRRMKEEFASEIDRELEKDGFLEVVLMRRLLGYVGGAV”, the “soluble on expression in E. coli” value was “not soluble”. With “MGSDKIHHHHHHMKASDFREWVGKITQLSRGQKEQTKHKLGGMVPRIEVAKWLESSFEPICPVCQSNHFYRWGYQAGLQRFYCRMCKHTFTAISGTPLARLRHKDQWLNYSAALIEGLTVRASARQCRIDKNTSFRWRHRFLTLPAAAKANHLEGIVEADETFFPVSCKGQRQLDRPPRKRGKQIHMRGTGKDQVPVLIVRDRSGATADFMLDAIDRKAIEPPLRTVLEKDVIFCSDGAAVYRSVARSLGITHRPVNLAAGVRVIAGVYHIQNVNAYHSRLKQWMKRFHGVATRYLENYLGWFRWLDQQENLSSPIVPLQAALGRENQFQLLTNT” the “soluble on expression in E. coli” value was “not soluble”. For “MLKYQQIATEIETYIEEHQLQQGDKLPVLETLMAQFEVSKSTITKSLELLEQKGAIFQVRGSGIFVRKHKRKGYISLLSNQGFKKDLEDFNVTSKVIELDVRKPTPEAAENLNIGMDEDIYYVKRVRYINGQTLCYEESYYTKSIVTYLNNEIVSHSIFHYIREGLGLKIGFSDLFLHVGQLNEEEAEYLGLEAGLPKLYIESIFHLTNGQPFDYSKISYNYEQSQFVVQANSFLL”, the “soluble on expression in E. coli” value was “soluble”. With “MSERIVPSGDVELWSDDFGDPADPALLLVMGGNLSALGWPDEFARRLADGGLHVIRYDHRDTGRSTTRDFAAHPYGFGELAADAVAVLDGWGVDRAHVVGLSMGATITQVIALDHHDRLSSLTMLLGGGLDIDFDANIERVMRGEPTLDGLPGPQQPFLDALALMNQPAEGRAAEVAKRVSKWRILSGTGVPFDDAEYARWEERAIDHAGGVLAEPYAHYSLTLPPPSRAAELREVTVPTLVIQAEHDPIAPAPHGKHLAGLIPTARLAEIPGMGHALPSSVHGPLAEVILAHTRSAA” the “soluble on expression in E. coli” value was “soluble”. For “MGSDKIHHHHHHMRVASERLILGDRITESLFLHTDIPIVEAGKKIGADELRRIKRFLIKEVDIEKRPEGMSEASMMDQELDDMIEDSIFDSLIETYNQVFTSWEQGLVPNVYDALRWVKESMPETMRRDDILPYFLERGTEAYTVRHAIYRGAIAQLLAEAAGKERKMIHDLWVASYFADCGLARIMEWRHTKRYEAMQQEIFHRHPAMAFQALQKENIISDTVKRLIVQHHERLDGSGYPLKVKGDKIMDHTRLFIVADVFAAMTSWRPYREAYKVYDAYCHLKARPMQYDSKYVMLLGQLLLPIEPGDRVLMSNGKIATVLRKNSIFDRPVIAYEEHNRRIVKDLMEDRQLNIIQLMD”, the “soluble on expression in E. coli” value was “not soluble”.
